B1: LINE1-full (parent)
chain: UACGUAGGUGGUUUUCCCCUGAUAGUGCUAAGGGGGCCUGGAAGUUUGGACUGGGCAGAGCUCAACACAGCGUGGCAAAGUGGCUGUGGCUAGACUGCCUCUCUGGAUUCCUCGUCACUCAGCAGGGCAUCUCUGAGAGAAAUGCC

Variants of: B1
Test: self-cleavage, relative activity (ratio to wild type); higher = more cleavage; in vitro, sequencing; the parent is a self-cleaving ribozyme

Variant | self-cleavage
A31U U119C | 1.62
A31U U85G | 0.15
A31U A43G | 0.9
A31C A142G | 0.53
G33U G144A | 1.21
A30U A79C | 1.19
G33A U119C | 0.66
A31G G135A | 1.09
A31G U73C | 0.77
A31G U73A | 0.79
A30G U143C | 1.06
A30G U143A | 0.93
G32C U87A | 0.06
G32A A77G | 1.56
A30U G35A | 1.07
A30G U132G | 1.93
A31G A78G | 0.96
A30U U45G | 0.74
A31U U130C | 1.23
A30U C56A | 0.09
A30G G55U | 0.79
G33U U104C | 1.62
G33U U104A | 0.93
A31G G125U | 0.96

Variant | self-cleavage
G32U U132A | 1.2
G33U U73A | 1.38
G32U U100C | 2.02
G33U U132G | 1.74
G32U G55A | 0.18
G33A A59U | 0.65
G33A A59G | 0.12
A30U U104A | 1.93
A30U U104C | 1.31
G32A G122A | 2.13
A30U U91C | 0.56
G32A U96A | 0.05
G32A U39C | 1.07
A31G C110U | 0.51
G33U A129G | 1.34
A31G U112C | 1.3
A30G G126U | 0.96
A30U C90G | 0.09
G32C A117G | 1.53
A31U U45G | 1.5
G33A U100C | 1.28
A30G U91C | 0.65
A31G A138G | 0.86
A31U A121U | 0.51

Variant | self-cleavage
A31U A121G | 1
G33A A142U | 1.43
G32A U115A | 1.5
G32A U115C | 0.95
A30U A77G | 1.25
A30U U47A | 1.15
G32A C128A | 0.61
A31U U39C | 0.73
A31U U39G | 0.93
G33A U130C | 1.04
G33C C71U | 1.93
G32A A78U | 1.32
G32A U46C | 1.19
A31G U108C | 1.26
G33U A77G | 1.78
G33U A77C | 0.83
G33A A136G | 1.35
G32A C51U | 0.88
A30U A136G | 1.4
A30U A92G | 0.11
A30G G74A | 0.56
G33C U45C | 1.95
A30U A31G | 1.23
A30U A31U | 1.3

Variant | self-cleavage
G32A A57G | 1.37
A31U A67G | 0.41
A31U A77G | 1.39
A30U A107G | 1.28
A30G C123A | 1
G32C A67G | 0
A31G A77U | 0.86
A31U A129U | 0.33
G32A A129G | 0.93
G32A A129U | 1.15
G32A A138U | 0.89
G32U U134C | 0.74
A31U U96A | 0.07
A31U U96C | 0.23
A30G G83C | 0.66
G32C U104G | 1.26
A30U U100A | 0.9
A31G G35C | 1.15
A31U A64G | 0.2
A30U G82A | 1.57
G32A G86U | 0.12
A30U G144A | 0.75
G32A C68U | 0
A30U A43U | 0.58

Variant | self-cleavage
A30U A43C | 1.57
G33A U62A | 0.01
G33A U62C | 0.05
G33U A107G | 1.74
A30U G58A | 0.18
G32C U85C | 0.27
G32A U100C | 1.34
G32A U100A | 0.74
A31C A78G | 1.1
A31G U85A | 0.11
A31G U85C | 0.33
A30G G70U | 0.11
A31U U47C | 1.08
G32A A94C | 0.04
G32C G33U | 1.02
A30G U130A | 1.15
A30G G88C | 0.44
A30G U96A | 0.21
A30G U96C | 0.45
G33U A136U | 1.27
A31G A124U | 1.3
A30G U45A | 1.53
G33C U115C | 2.26
G34A A50U | 0.38

Variant | self-cleavage
G34A A50G | 0.87
G32U U45A | 1.17
A31G G82A | 2.09
A31G U47A | 0.94
A31G U47C | 0.79
A30U A50G | 2.04
A31G A65G | 0
G32A C101U | 0.95
G32A A141G | 1.95
A30G C99A | 0.61
A31G U130G | 1.84
A31C U85C | 0.54
A31G C145G | 1.63
A31G U91A | 0.3
A31G U81A | 0.66
A31G U81C | 0.69
A31G U39G | 1.37
A31G U39A | 0.49
A30G U108C | 0.5
A31U A124U | 1.42
A31U A124G | 1.09
A30U U132A | 1.22
A30U U132C | 1.07
A31G U104A | 0.48

Variant | self-cleavage
A30U C101U | 1.35
G33U A138G | 1.68
A31G A67G | 0.5
A31G U143C | 1.04
A31U U87A | 0.14
G33A A67G | 0.63
G32A G34A | 0.73
A31U A94G | 0.36
G33C G89U | 0.06
G33A U39C | 1.16
A30G U102C | 1.15
G32U C113U | 0.49
G32U C113A | 0.96
G33U A121G | 0.64
G32U A67U | 0.13
G32U U143C | 1.1
G33A U52A | 0.53
A31G C113U | 1.03
G33C A64U | 0.64
A30U U143A | 0.77
G33U U62C | 0.04
A31C U134C | 1
A31G C123U | 1.02
G32U U91G | 0.1

Variant | self-cleavage
A31G U109C | 0.79
A30U A117G | 2.32
A30U U108C | 0.41
A31G U102C | 0.35
A30U G125U | 1.17
A30G U87A | 0.16
A30U A69U | 0.1
A31G A92U | 0.91
A30U U134C | 1.22
G33C | 1.17
G33A | 1.14
G33U | 1.27
G33U C90G | 0.07
A31U A57G | 1
A30U A65C | 0.1
A30U A65G | 0.06
A30G U85A | 0.32
A30G U85G | 0.17
G32A U104A | 1.17
G33A A140G | 1.29
A31G G139U | 1.67
A31G G139A | 1.19
A31U U46G | 1.67
A31G U96C | 0.16

Variant | self-cleavage
A31G U96A | 0.11
A31C C71A | 0.19
G32A G83U | 0.83
A30U A124C | 1.05
G33U U39C | 1.16
G32A A79G | 1.26
A30G U112C | 0.96
A30G U112A | 1.1
A31G A129U | 0.84
A30G C110U | 1.25
G33U U85C | 0.06
A30G U109C | 1.71
A30G U109A | 1.38
G33A U143C | 1.44
G33A U143A | 1.07
A30G C103A | 0.85
G33U G75U | 0.91
G32A G82A | 2.01
A30G C38U | 1.2
G33A A138U | 1.19
A31G U87C | 0.22
A31U A138U | 1.4
G33U G126C | 1.21
A31G A59U | 0.42

Variant | self-cleavage
A31G A59C | 1.53
A31G A59G | 0.16
A30G C145G | 0.47
A30U U46G | 1.14
A30U U46C | 1.12
G33A G83A | 0.92
A31G G114A | 1.09
G32C A42U | 1.67
A31G U134A | 0.45
A31G U134C | 1.53
A31G U119A | 1.39
A31G U119C | 1.94
A30U A94G | 0.55
A31G A79G | 1.23
A31C U100C | 0.92
G33U U87C | 0.09
G33U A43G | 0.64
A30U U62C | 0.07
A30G C120U | 1.53
G32C A138G | 0.84
A30G U115A | 1.17
A30G G97A | 0.42
A31G A117U | 1
A31G A117G | 1.84

Variant | self-cleavage
G32A U102A | 0.63
A31U U109A | 1.69
A31U U109C | 1.17
A30U U112C | 1.08
A30G U73A | 1.19
A30G U73G | 0.81
A31U U112C | 1.27
A31U G88U | 0.15
A31G U46C | 1.67
G33U U115A | 1.38
G32A A69G | 0.37
G32A A69U | 0.02
G32A U119A | 1.1
A31U A107G | 1.28
A30G G44C | 0.8
G34A A57C | 0.07
A31U U73A | 1.33
G33A U108C | 1.47
A30U U87C | 0.23
A30U A42G | 0.99
A31C U104A | 2.67
G32U U73A | 0.89
G33U A140G | 1.83
A31U U62C | 0.12

Variant | self-cleavage
A30G C63U | 0.51
A30G C63A | 0.3
A31G A142G | 1.17
A31U | 1.03
A31G | 1.11
A31C | 1.43
G32U U96C | 0.08
A31G G72A | 0.77
A31U G86A | 0.05
A30U U130C | 1.05
A31U G126U | 0.79
G32A A50G | 0.93
G32U A65G | 0.12
G33A U46C | 1.12
A30U G48U | 0.71
A31G A43G | 0.98
G32U U115A | 1.04
G33U G74A | 0.88
A31G A121G | 1.24
G32A A64U | 0.36
G32A A64G | 0.24
A31G A64U | 0.48
A31G A141G | 1.1
G34A A59G | 0.07

Variant | self-cleavage
A31G A69U | 0.12
A31U A136U | 0.55
A31U U104A | 1.15
A31U G33C | 0.81
A30U A57U | 0.13
G32A G55U | 0.32
A31U A50G | 0.16
A31U C146A | 0.88
A31U C146U | 0.94
A30G U104A | 0.61
A30U A141G | 0.87
A31C U39C | 1.19
G32A A107G | 1.09
A31U A59G | 0.14
A31U A59U | 0.39
A30G U119C | 1.45
A30G U119A | 1.01
A31U U81A | 1.57
G32A A59G | 0.02
A31U G58A | 0.05
G32A U130C | 1.26
G32A U112C | 1.36
G32A U108C | 0.76
A31U U115G | 0.37

Variant | self-cleavage
A31U U115C | 1.32
A30U G32A | 0.89
G33U U119C | 1.19
G33C A142C | 1.28
A30G U62A | 0.04
A30G U62C | 0.13
G33A G55A | 0.73
A31G U132C | 0.85
A31G C98A | 0
A31C U45G | 0
A31G U100C | 1.29
A30G G105C | 0.25
G32C U109A | 1.56
G33C A136G | 0
A31U U52A | 1.73
A31U U52C | 0.87
G33U U96C | 0.17
G33U U96A | 0.06
G32A A121U | 1.45
G32A A121G | 1.53
A30G C146U | 0.92
A31G A42G | 0.96

Reference: the RNAGym collection of RNA variant scans (doi:10.7554/elife.90254)
